Data set [1] is described as follows: Flag-KPNA2 pull-down, HEK293T, IFNγ. The settings on record: glycan lost; control: cells expressing UGDH WT.
The nature of data set [2]: NADH OD340 assay, Flag-purified protein. The following applies: glycan lost; control: WT UGDH from HEK293T.
Data set [3] is described as follows: steady-state kinetics, Michaelis-Menten fit. The settings on record: glycan lost; control: WT UGDH from HEK293T.
Data set [4] in a line: HABP immunofluorescence and competitive ELISA. The settings on record: glycan lost; control: UGDH-KO A549 rescued with WT UGDH. Background: An ELISA detects its analyte on a solid surface through an enzyme-linked reagent.
Data set [5] in a line: NADH OD340 assay, Flag-purified from HEK293T. The settings on record: glycan gained; control: WT UGDH, no OGT co-expression or TMG.

B1: UGDH (uridine diphosphate glucose dehydrogenase): S350A (protein)
parent chain: MFEIKKICCIGAGYVGGPTCSVIAHMCPEIRVTVVDVNESRINAWNSPTLPIYEPGLKEVVESCRGKNLFFSTNIDDAIKEADLVFISVNTPTKTYGMGKGRAADLKYIEACARRIVQNSNGYKIVTEKSTVPVRAAESIRRIFDANTKPNLNLQVLSNPEFLAEGTAIKDLKNPDRVLIGGDETPEGQRAVQALCAVYEHWVPREKILTTNTWSSELSKLAANAFLAQRISSINSISALCEATGADVEEVATAIGMDQRIGNKFLKASVGFGGSCFQKDVLNLVYLCEALNLPEVARYWQQVIDMNDYQRRRFASRIIDSLFNTVTDKKIAILGFAFKKDTGDTRESSSIYISKYLMDEGAHLHIYDPKVPREQIVVDLSHPGVSEDDQVSRLVTISKDPYEACDGAHAVVICTEWDMFKELDYERIHKKMLKPAFIFDGRRVLDGLHNELQTIGFQIETIGKKVSSKRIPYAPSGEIPKFSLQDPPNKKPKV
Take B1: in data set [1], the “other: KPNA2-STAT1 association in cells” value is “increases”. In addition, the enzymatic_activity result in data set [2] was “decreases”. In addition, the “enzymatic_activity, kcat_Km” value in data set [3] is recorded as “decreases, 0.576 vs 5.07, Km value of 37.7 μM for the S350A, which was 3-fold higher than that of the WT with a Km value of 11.4 μM”. Moreover, the “other: cellular hyaluronic acid level” value in data set [4] is “decreases”.

B2: UGDH (uridine diphosphate glucose dehydrogenase): OGT co-expression (protein)
parent chain: B1 parent chain
As for B2, the enzymatic_activity entry in data set [5] was “increases”.

B3: UGDH (uridine diphosphate glucose dehydrogenase): TMG (50 μM) (protein)
parent chain: B1 parent chain
For B3, in data set [5], the enzymatic_activity result is listed as “increases”.

For the origin of these results see article PMC13036090.
